Molecular target: hPSMA (purified and soluble antigen) (human (printed as hPSMA), UniProt Q04609 44-750)
Test: SPR, Biacore T200, standard kinetics, antigen immobilized on CM5 chip

Chain of hPSMA (purified and soluble antigen) (Q04609 44-750): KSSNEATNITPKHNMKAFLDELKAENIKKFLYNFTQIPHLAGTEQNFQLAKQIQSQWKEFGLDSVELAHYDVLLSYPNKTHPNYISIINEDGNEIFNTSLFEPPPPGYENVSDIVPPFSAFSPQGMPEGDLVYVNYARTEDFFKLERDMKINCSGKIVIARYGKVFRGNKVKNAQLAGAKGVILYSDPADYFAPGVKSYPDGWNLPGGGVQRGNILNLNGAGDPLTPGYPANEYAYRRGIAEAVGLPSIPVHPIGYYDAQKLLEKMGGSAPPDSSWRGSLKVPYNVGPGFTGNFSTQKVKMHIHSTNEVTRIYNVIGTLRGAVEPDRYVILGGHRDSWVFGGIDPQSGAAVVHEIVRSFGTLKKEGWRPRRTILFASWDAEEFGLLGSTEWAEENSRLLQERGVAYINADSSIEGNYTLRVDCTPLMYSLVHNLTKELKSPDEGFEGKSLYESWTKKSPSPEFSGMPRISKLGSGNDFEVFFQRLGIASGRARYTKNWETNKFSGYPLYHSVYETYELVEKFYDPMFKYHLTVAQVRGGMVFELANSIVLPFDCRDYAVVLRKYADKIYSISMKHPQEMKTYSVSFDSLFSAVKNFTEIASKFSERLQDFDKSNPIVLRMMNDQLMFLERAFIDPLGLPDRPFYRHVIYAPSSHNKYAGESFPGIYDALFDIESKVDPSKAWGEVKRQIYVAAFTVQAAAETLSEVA

B1: scFv Ab1 (D2B) of synthesis (scFv)
scFv: EVKLQESGPGLVKPSQSLSLTCSVTGYSITSGYYWNWIRQFPGNKLEWMGSISFDGNNNYNPSLRNRISITRDTSKNQFFLKLNSVTTEDTATYYCAREGDYYGSSFFTYWGQGTLVTVSSGGGGSGGGGSGGGGSALDIVMTQSPASLSASVGETVTLTCGASENIYGALNWYQRKQGKSPQLLIYGATNLADGMSSRFSGSGSGRQYSLKISSLHPDDVATYYCQNVFRTYTFGGGTKLEIKRAAAHHHHHH
modifications: L-pyroglutamic acid (<E) printed at position 1 of segment 1; two disulfide bonds (C22-C96 and C161-C226)
notes: Made by full chemical synthesis, 254 residues ending at H254; also called scFv Ab1 synthesis; scFv D2B
Kd: 12 nM

B2: scFv Ab1 RREF (scFv)
scFv: B1 scFv
notes: Produced in a prokaryotic system; Contains two tags (Myc and His); not shown: Myc tag present in RREF in addition to the His tag
Kd: 27 nM

— patent publication US20260226095A1 (GLYTECH, published 2026)
